Results as given in article doi:10.1101/2024.10.21.619555 (bioRxiv, 2024).

Experiments:
recombinant RBP4 = recombinant RBP4 (UniProt P02753 19-201); assay: cross-linking
SEC = biological target: the molecule itself; assay: SEC
[1] = biological target: the molecule itself; assay: single-molecule dual-color photobleaching
single-receptor tracking = biological target: the molecule itself; assay: single-receptor tracking
[2] = biological target: the molecule itself; assay: single-molecule photobleaching

B1: recombinant DR6 ECD (domain or fragment, UniProt O75509 42-349, looked up)
chain: QPEQKASNLIGTYRHVDRATGQVLTCDKCPAGTYVSEHCTNTSLRVCSSCPVGTFTRHENGIEKCHDCSQPCPWPMIEKLPCAALTDRECTCPPGMFQSNATCAPHTVCPVGWGVRKKGTETEDVRCKQCARGTFSDVPSSVMKCKAYTDCLSQNLVVIKPGTKETDNVCGTLPSFSSSTSPSPGTAIFPRPEHMETHEVPSSTYVPKGMNSTESNSSASVRPKVLSSIQEGTVPDNTSSARGKEDVNKTLPNLQVVNHQQGPHHRHILKLLPSMEATGGEKSSTPIKGPKRGHPRQNLHKHFDINEH
stoichiometry N (recombinant RBP4): 1 | binding result (SEC): binds

B2: DR6 ECD-Halo (domain or fragment, UniProt O75509 42-349, looked up)
chain: QPEQKASNLIGTYRHVDRATGQVLTCDKCPAGTYVSEHCTNTSLRVCSSCPVGTFTRHENGIEKCHDCSQPCPWPMIEKLPCAALTDRECTCPPGMFQSNATCAPHTVCPVGWGVRKKGTETEDVRCKQCARGTFSDVPSSVMKCKAYTDCLSQNLVVIKPGTKETDNVCGTLPSFSSSTSPSPGTAIFPRPEHMETHEVPSSTYVPKGMNSTESNSSASVRPKVLSSIQEGTVPDNTSSARGKEDVNKTLPNLQVVNHQQGPHHRHILKLLPSMEATGGEKSSTPIKGPKRGHPRQNLHKHFDINEH
modifications: Alexa Fluor 660 label
stoichiometry N [1]: 2

B3: quantum dot-labeled DR6, wild type (receptor, UniProt O75509 42-655, looked up)
chain: QPEQKASNLIGTYRHVDRATGQVLTCDKCPAGTYVSEHCTNTSLRVCSSCPVGTFTRHENGIEKCHDCSQPCPWPMIEKLPCAALTDRECTCPPGMFQSNATCAPHTVCPVGWGVRKKGTETEDVRCKQCARGTFSDVPSSVMKCKAYTDCLSQNLVVIKPGTKETDNVCGTLPSFSSSTSPSPGTAIFPRPEHMETHEVPSSTYVPKGMNSTESNSSASVRPKVLSSIQEGTVPDNTSSARGKEDVNKTLPNLQVVNHQQGPHHRHILKLLPSMEATGGEKSSTPIKGPKRGHPRQNLHKHFDINEHLPWMIVLFLLLVLVVIVVCSIRKSSRTLKKGPRQDPSAIVEKAGLKKSMTPTQNREKWIYYCNGHGIDILKLVAAQVGSQWKDIYQFLCNASEREVAAFSNGYTADHERAYAALQHWTIRGPEASLAQLISALRQHRRNDVVEKIRGLMEDTTQLETDKLALPMSPSPLSPSPIPSPNAKLENSALLTVEPSPQDKNKGFFVDESEPLLRCDSTSSGSSALSRNGSFITKEKKDTVLRQVRLDPCDLQPIFDDMLHFLNPEELRVIEEIPQAEDKLDRLFEIIGVKSQEASQTLLDSVYSHLPDLL
modifications: quantum dot label
fold lower turnover into the monomeric state than DR6 ΔECD (single-receptor tracking): 2.1 fold | stoichiometry N (single-receptor tracking): 2

B4: SNAP-DR6 (receptor, UniProt O75509 42-655, looked up)
chain: QPEQKASNLIGTYRHVDRATGQVLTCDKCPAGTYVSEHCTNTSLRVCSSCPVGTFTRHENGIEKCHDCSQPCPWPMIEKLPCAALTDRECTCPPGMFQSNATCAPHTVCPVGWGVRKKGTETEDVRCKQCARGTFSDVPSSVMKCKAYTDCLSQNLVVIKPGTKETDNVCGTLPSFSSSTSPSPGTAIFPRPEHMETHEVPSSTYVPKGMNSTESNSSASVRPKVLSSIQEGTVPDNTSSARGKEDVNKTLPNLQVVNHQQGPHHRHILKLLPSMEATGGEKSSTPIKGPKRGHPRQNLHKHFDINEHLPWMIVLFLLLVLVVIVVCSIRKSSRTLKKGPRQDPSAIVEKAGLKKSMTPTQNREKWIYYCNGHGIDILKLVAAQVGSQWKDIYQFLCNASEREVAAFSNGYTADHERAYAALQHWTIRGPEASLAQLISALRQHRRNDVVEKIRGLMEDTTQLETDKLALPMSPSPLSPSPIPSPNAKLENSALLTVEPSPQDKNKGFFVDESEPLLRCDSTSSGSSALSRNGSFITKEKKDTVLRQVRLDPCDLQPIFDDMLHFLNPEELRVIEEIPQAEDKLDRLFEIIGVKSQEASQTLLDSVYSHLPDLL
modifications: SNAP-Surface Alexa Fluor 488 label
stoichiometry N [2]: 2
